Columns and labels:
HeLa Kyoto [1] = assay: thermal stability score vs G1/S (z-score of summed log2 fold changes over temperatures); higher = more thermally stable than in G1/S
HeLa Kyoto [2] = assay: solubility change mitosis vs G1/S (difference of NP-40 vs SDS log2 ratios) (log2 ratio difference); higher = more soluble in mitosis
HeLa Kyoto [3] = assay: solubility in G1/S (NP-40 vs SDS abundance) (log2 ratio); higher = more soluble; settings: cell cycle stage: G1/S
HeLa Kyoto [4] = assay: melting temperature (median over replicates), in situ; higher = more thermally stable
[5] = cell cycle stage: early G1 (4.5 h after nocodazole release)
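For melting temperature (median over replicates), in situ in this document: HeLa Kyoto cells synchronized by double thymidine or nocodazole block, proteins quantified by TMT10plex mass spectrometry, three independent biological replicates.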
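For solubility change mitosis vs G1/S (difference of NP-40 vs SDS log2 ratios) in this document: synchronized HeLa Kyoto cells (double thymidine block for G1/S, nocodazole release for mitosis), protein amounts in NP-40 versus SDS lysates quantified by mass spectrometry, three biological replicates.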
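For solubility in G1/S (NP-40 vs SDS abundance) in this document: HeLa Kyoto cells arrested at G1/S by double thymidine block, proteins quantified by TMT10plex mass spectrometry in mild NP-40 versus SDS extracts, three biological replicates.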
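For thermal stability score vs G1/S (z-score of summed log2 fold changes over temperatures) in this document: synchronized HeLa Kyoto cells, proteins quantified by TMT10plex mass spectrometry, three biological replicates, mitosis taken 0.5 h after nocodazole release, G1/S directly after double thymidine block.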

Row | Sequence | thermal stability score (HeLa Kyoto [1]; [5]) | thermal stability score (HeLa Kyoto [1]; cell cycle stage: mitosis) | solubility change mitosis (log2) (HeLa Kyoto [2]) | solubility in G1/S (log2) (HeLa Kyoto [3]) | melting temperature (HeLa Kyoto [4]; cell cycle stage: G1/S) | melting temperature (HeLa Kyoto [4]; cell cycle stage: mitosis)
1 | MAAKGAHGSYLKVESELERCRAEGHWDRMPELVRQLQTLSMPGGGGNRRGSPSAAFTFPDTDDFGKLLLAEALLEQCLKENHAKIKDSMPLLEKNEPKMSEAKNYLSSILNHGRLSPQYMCEAMLILGKLHYVEGSYRDAISMYARAGIDDMSMENKPLYQMRLLSEAFVIKGLSLERLPNSIASRFRLTEREEEVITCFERASWIAQVFLQELEKTTNNSTSRHLKGCHPLDYELTYFLEAALQSAYVKNLKKGNIVKGMRELREVLRTVETKATQNFKVMAAKHLAGVLLHSLSEECYWSPLSHPLPEFMGKEESSFATQALRKPHLYEGDNLYCPKDNIEEALLLLLISESMATRDVVLSRVPEQEEDRTVSLQNAAAIYDLLSITLGRRGQYVMLSECLERAMKFAFGEFHLWYQVALSMVACGKSAYAVSLLRECVKLRPSDPTVPLMAAKVCIGSLRWLEEAEHFAMMVISLGEEAGEFLPKGYLALGLTYSLQATDATLKSKQDELHRKALQTLERAQQLAPSDPQVILYVSLQLALVRQISSAMEQLQEALKVRKDDAHALHLLALLFSAQKHHQHALDVVNMAITEHPENFNLMFTKVKLEQVLKGPEEALVTCRQVLRLWQTLYSFSQLGGLEKDGSFGEGLTMKKQSGMHLTLPDAHDADSGSRRASSIAASRLEEAMSELTMPSSVLKQGPMQLWTTLEQIWLQAAELFMEQQHLKEAGFCIQEAAGLFPTSHSVLYMRGRLAEVKGNLEEAKQLYKEALTVNPDGVRIMHSLGLMLSRLGHKSLAQKVLRDAVERQSTCHEAWQGLGEVLQAQGQNEAAVDCFLTALELEASSPVLPFSIIPREL [TTC7A] | 0.0827 | -0.515 | -0.168 | 0.161 | 51.2 °C | 
2 | MAAKVFESIGKFGLALAVAGGVVNSALYNVDAGHRAVIFDRFRGVQDIVVGEGTHFLIPWVQKPIIFDCRSRPRNVPVITGSKDLQNVNITLRILFRPVASQLPRIFTSIGEDYDERVLPSITTEILKSVVARFDAGELITQRELVSRQVSDDLTERAATFGLILDDVSLTHLTFGKEFTEAVEAKQVAQQEAERARFVVEKAEQQKKAAIISAEGDSKAAELIANSLATAGDGLIELRKLEAAEDIAYQLSRSRNITYLPAGQSVLLQLPQ [PHB] | -1.45 | -2.71 | -0.0774 | -0.137 | 59.5 °C | 58.1 °C
3 | MAALGPSSQNVTEYVVRVPKNTTKKYNIMAFNAADKVNFATWNQARLERDLSNKKIYQEEEMPESGAGSEFNRKLREEARRKKYGIVLKEFRPEDQPWLLRVNGKSGRKFKGIKKGGVTENTSYYIFTQCPDGAFEAFPVHNWYNFTPLARHRTLTAEEAEEEWERRNKVLNHFSIMQQRRLKDQDQDEDEEEKEKRGRRKASELRIHDLEDDLEMSSDASDASGEEGGRVPKAKKKAPLAKGGRKKKKKKGSDDEAFEDSDDGDFEGQEVDYMSDGSSSSQEEPESKAKAPQQEEGPKGVDEQSDSSEESEEEKPPEEDKEEEEEKKAPTPQEKKRRKDSSEESDSSEESDIDSEASSALFMAKKKTPPKRERKPSGGSSRGNSRPGTPSAEGGSTSSTLRAAASKLEQGKRVSEMPAAKRLRLDTGPQSLSGKSTPQPPSGKTTPNSGDVQVTEDAVRRYLTRKPMTTKDLLKKFQTKKTGLSSEQTVNVLAQILKRLNPERKMINDKMHFSLKE [GTF2F1] | -0.52 | -1.74 | 0.126 | 0.237 | 52.7 °C | 53.3 °C
4 | MAALTLRGVRELLKRVDLATVPRRHRYKKKWAATEPKFPAVRLALQNFDMTYSVQFGDLWPSIRVSLLSEQKYGALVNNFAAWDHVSAKLEQLSAKDFVNEAISHWELQSEGGQSAAPSPASWACSPNLRCFTFDRGDISRFPPARPGSLGVMEYYLMDAASLLPVLALGLQPGDIVLDLCAAPGGKTLALLQTGCCRNLAANDLSPSRIARLQKILHSYVPEEIRDGNQVRVTSWDGRKWGELEGDTYDRVLVDVPCTTDRHSLHEEENNIFKRSRKKERQILPVLQVQLLAAGLLATKPGGHVVYSTCSLSHLQNEYVVQGAIELLANQYSIQVQVEDLTHFRRVFMDTFCFFSSCQVGELVIPNLMANFGPMYFCKMRRLT [NSUN4] | 0.266 | 0.044 | 0.115 | -0.195 | 51.7 °C | 51.9 °C
5 | MAALVVSGAAEQGGRDGPGRGRAPRGRVANQIPPEILKNPQLQAAIRVLPSNYNFEIPKTIWRIQQAQAKKVALQMPEGLLLFACTIVDILERFTEAEVMVMGDVTYGACCVDDFTARALGADFLVHYGHSCLIPMDTSAQDFRVLYVFVDIRIDTTHLLDSLRLTFPPATALALVSTIQFVSTLQAAAQELKAEYRVSVPQCKPLSPGEILGCTSPRLSKEVEAVVYLGDGRFHLESVMIANPNVPAYRYDPYSKVLSREHYDHQRMQAARQEAIATARSAKSWGLILGTLGRQGSPKILEHLESRLRALGLSFVRLLLSEIFPSKLSLLPEVDVWVQVACPRLSIDWGTAFPKPLLTPYEAAVALRDISWQQPYPMDFYAGSSLGPWTVNHGQDRRPHAPGRPARGKVQEGSARPPSAVACEDCSCRDEKVAPLAP [DPH1] | -0.776 | -1.19 | -0.202 | 0.145 | 53 °C | 53 °C

Reference: the supplement of paper PMC5998384
